Ends that are not written are not given here. fluorophore = not defined here
Legend:
TMR-BID BH3 = assay: fluorescence polarisation; fluorescence anisotropy; Bcl-xL titrated into TMR-BID BH3 (5 nM) in sodium phosphate buffer (50 mM, pH 7.5) with sodium chloride (10 mM), 15 °C; fit to the Langmuir isotherm, apparent dissociation constant, at least three independent curves averaged
Bcl-xL = Bcl-xL (UniProt Q07817); assay: not stated; fluorescently labelled peptide with Bcl-xL; data in Table S4

| Molecule | Kd (TMR-BID BH3) [nM] | Kd (Bcl-xL) [nM] |
| --- | --- | --- |
| Bcl-xL (from UniProt Q07817-1 1-209) (domain or fragment) | 27 |  |
| DC(fluorophore)AEDIGVNIARHLAQVGDSIDRSI (reading uncertain; also: fluorophore not named) [LOV-BID peptide] |  | 46 |
